Read-outs that look alike come from different tables or passages of the source.
Legend:
cemiplimab = assay: BLI; Octet RED96; antibodies captured on anti-human Fc AHC2 tips, PD-1 proteins as analyte at different concentrations; Octet kinetics buffer; 1:1 binding model
camrelizumab = assay: as above
nivolumab = assay: as above
pembrolizumab = assay: as above
[1] = target: non-fucosylated recombinant PD-1 (PD-1 NF) (human) (UniProt Q15116); assay: ELISA; plate-based ligand blocking: plates coated with 5 ug/ml PD-1, PD-1 NF or PD-1 N58Q; antibodies 1 h at room temperature, washed, then 1 ug/ml PD-L1-Fc-biotin 2 h; streptavidin-HRP
non-fucosylated recombinant PD-1 (PD-1 NF) (human), sequence (Q15116 24-167): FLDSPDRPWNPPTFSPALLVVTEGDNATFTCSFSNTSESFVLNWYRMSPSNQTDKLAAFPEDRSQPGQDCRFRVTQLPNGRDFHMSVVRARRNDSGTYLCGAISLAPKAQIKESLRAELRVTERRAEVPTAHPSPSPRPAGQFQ

[2] = target: T1, PD-1 on Jurkat-Lucia TCR-hPD-1 cells (Homo sapiens, UniProt Q15116)
T1 sequence (Q15116 25-288): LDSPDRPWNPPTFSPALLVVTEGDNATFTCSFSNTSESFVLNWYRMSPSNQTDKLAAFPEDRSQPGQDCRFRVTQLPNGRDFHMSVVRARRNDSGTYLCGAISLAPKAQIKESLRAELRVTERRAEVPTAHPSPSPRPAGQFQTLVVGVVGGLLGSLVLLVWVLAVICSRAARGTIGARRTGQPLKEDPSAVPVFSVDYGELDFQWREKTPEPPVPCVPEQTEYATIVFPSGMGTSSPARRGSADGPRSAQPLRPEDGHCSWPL

[3] = target: T2, recombinant PD-1 N58Q mutant (human, UniProt Q15116, N58Q); assay: BLI; Octet RED96; antibodies captured on anti-human Fc AHC2 tips, PD-1 proteins as analyte at different concentrations; Octet kinetics buffer; 1:1 binding model; conditions: both partners purified
T2 construct: PD-1, human, UniProt Q15116, residues 24-167 of the extracellular portion, N58Q; source: Expi293, transiently transfected, purified (Ni Sepharose Excel)
T2 sequence (Q15116 24-167 N58Q): as the sequence (Q15116 24-167) above, with N35Q counted along it

[4] = target: T3, chimeric receptor with the extracellular and transmembrane domains of PD-1 and intracellular GFP, on CHO-K1 … (Homo sapiens, UniProt Q15116, N-glycans without core fucose (Fut8 KO host)); assay: flow cytometry on cells; antibodies added to CHO-K1 or CHO-K1 Fut8 KO cells transfected with PD-1 (extracellular and transmembrane domains)-GFP, 30 min on ice; binding as percentage of PD-1 expression in GFP-positive cells; four-parameter logistic fit; conditions: one partner purified
T3 construct: PD-1, human, extracellular and transmembrane domains; differs in the host and so in the glycans; also called cell surface PD-1 (CHO-K1 Fut8 KO); source: CHO-K1 Fut8 KO, transfected, on cells
T3 sequence (Q15116 whole entry, looked up, stated change not applied, the tested form may be a part): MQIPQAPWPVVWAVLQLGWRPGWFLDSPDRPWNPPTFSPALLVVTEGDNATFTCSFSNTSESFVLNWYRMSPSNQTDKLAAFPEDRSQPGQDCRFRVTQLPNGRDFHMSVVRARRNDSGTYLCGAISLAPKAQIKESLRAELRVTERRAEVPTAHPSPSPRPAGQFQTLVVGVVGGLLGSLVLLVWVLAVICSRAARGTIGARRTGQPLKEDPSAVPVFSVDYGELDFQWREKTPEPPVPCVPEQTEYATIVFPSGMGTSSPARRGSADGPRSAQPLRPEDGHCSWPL

[5] = target: T2, recombinant PD-1 N58Q mutant; assay: ELISA; plate-based ligand blocking: plates coated with 5 ug/ml PD-1, PD-1 NF or PD-1 N58Q; antibodies 1 h at room temperature, washed, then 1 ug/ml PD-L1-Fc-biotin 2 h; streptavidin-HRP; conditions: both partners purified
[6] = target: T4, full-length PD-1 on CHO-K1 Fut8 KO cells (human, UniProt Q15116, N-glycans without core fucose (Fut8 KO host)); assay: flow cytometry on cells; ligand blocking: PD-1-transfected CHO-K1 or CHO-K1 Fut8 KO cells incubated with antibodies 15 min on ice before PD-L1:SA-PE complexes; four-parameter logistic fit; conditions: one partner purified
T4 construct: PD-1, human, full length, on transfected cells; also called PD-1 expressed in CHO-K1 Fut8 KO; Fut8-deficient cells; source: CHO-K1 Fut8 KO, transfected, on cells
T4 sequence (Q15116 25-288): as the sequence (Q15116 25-288) above

[7] = target: T1, PD-1 on Jurkat-Lucia TCR-hPD-1 cells; assay: cell-based or functional assay

non-fucosylated recombinant PD-1 (PD-1 NF), sequence (Q15116 24-167): as the sequence (Q15116 24-167) above
recombinant PD-1 (extracellular portion of human PD-1, residues 24-167), sequence (Q15116 24-167): as above
pembrolizumab, sequence (heavy, as listed by the source, chain 1 of 2): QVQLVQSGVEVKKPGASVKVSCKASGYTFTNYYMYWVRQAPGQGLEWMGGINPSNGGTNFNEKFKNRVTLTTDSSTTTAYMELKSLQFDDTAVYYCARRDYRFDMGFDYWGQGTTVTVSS
pembrolizumab, sequence (light, as listed by the source, chain 2 of 2): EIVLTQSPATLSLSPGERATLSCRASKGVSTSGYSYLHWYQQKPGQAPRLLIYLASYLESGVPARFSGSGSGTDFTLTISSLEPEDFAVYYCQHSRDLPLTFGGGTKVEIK
nivolumab, sequence (heavy, as listed by the source, chain 1 of 2): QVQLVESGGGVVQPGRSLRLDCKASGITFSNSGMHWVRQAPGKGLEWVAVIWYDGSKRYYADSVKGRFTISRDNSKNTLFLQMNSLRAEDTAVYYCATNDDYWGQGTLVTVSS
nivolumab, sequence (light, as listed by the source, chain 2 of 2): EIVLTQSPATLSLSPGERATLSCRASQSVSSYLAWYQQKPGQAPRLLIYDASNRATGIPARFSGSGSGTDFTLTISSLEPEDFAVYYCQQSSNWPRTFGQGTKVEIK

Row | Kd (cemiplimab) | Kd (camrelizumab) | Kd (nivolumab) | Kd (pembrolizumab) | IC50 [1] | PD-1/PD-L1 reporter assay (Jurkat-Lucia TCR-hPD-1 with Raji-APC-hPD-L1, luciferase): blockade of PD-1:PD-L1, fold change of IC50, Jurkat cells pretreated with the fucose inhibitor against untreated [2] | Kd [3] | fold change in EC50 (CHO-K1 Fut8 KO against wild-type CHO-K1) [4] | IC50 [5] | IC50 [6] | PD-1/PD-L1 reporter assay (Jurkat-Lucia TCR-hPD-1 with Raji-APC-hPD-L1, luciferase): blockade of PD-1:PD-L1, fold change of IC50, Jurkat cells pretreated with the fucose inhibitor against untreated [7] | Molecule
1 | 2.95 nM | 3.41 nM | – | – | – | – | – | – | – | – | – | recombinant PD-1 (extracellular portion of human PD-1, residues 24-167) (from UniProt Q15116 24-167) (domain or fragment)
2 | 87.1 nM | 380 nM | 20.8 nM | 3.67 nM | – | – | – | – | – | – | – | non-fucosylated recombinant PD-1 (PD-1 NF) (from UniProt Q15116 24-167) (domain or fragment)
3 | – | – | – | – | 0.6 nM | 2.4 fold | 260 nM | 1.3 fold | 1.4 nM | 2.6 nM | – | cemiplimab (antibody, V domains shown, Whole therapeutic anti-human PD-1 antibody; The PDB entry may hold only the variable part; source: bought: Selleck Chemicals) VH: EVQLLESGGVLVQPGGSLRLSCAASGFTFSNFGMTWVRQAPGKGLEWVSGISGGGRDTYFADSVKGRFTISRDNSKNTLYLQMNSLKGEDTAVYYCVKWGNIYFDYWGQGTLVTVSS VL: DIQMTQSPSSLSASVGDSITITCRASLSINTFLNWYQQKPGKAPNLLIYAASSLHGGVPSRFSGSGSGTDFTLTIRTLQPEDFATYYCQQSSNTPFTFGPGTVVDFR
4 | – | – | – | – | 1.5 nM | – | 449 nM | 3 fold | 18 nM | 5.6 nM | 2.8 fold | camrelizumab (antibody, V domains shown, Whole therapeutic anti-human PD-1 antibody; a human IgG4 isotype was the control and anti-human IgG4 or anti-human IgG the detection reagent; The PDB entry may hold only the variable part; source: bought: Selleck Chemicals) VH: EVQLVESGGGLVQPGGSLRLSCAASGFTFSSYMMSWVRQAPGKGLEWVATISGGGANTYYPDSVKGRFTISRDNAKNSLYLQMNSLRAEDTAVYYCARQLYYFDYWGQGTTVTVSS VL: DIQMTQSPSSLSASVGDRVTITCLASQTIGTWLTWYQQKPGKAPKLLIYTATSLADGVPSRFSGSGSGTDFTLTISSLQPEDFATYYCQQVYSIPWTFGGGTKVEIK
